Measured values from patent US20160272683A1 (Novo Nordisk, published 2016).
Numbered stars: 1 amine (or outer) side, 2 acyl side, 3 side chain; on linkers, the order of the positions; unused ones are H or OH. Side chains are listed from the residue outwards. Ends that are not written are not given here. * marks the point of attachment. C20 diacid = O=C(O)CCCCCCCCCCCCCCCCCCC(=O)*; C18 diacid = O=C(O)CCCCCCCCCCCCCCCCC(=O)*; γGlu = O=C(O)[C@H](CCC(=O)[*:2])N[*:1]

target: T1, human amylin receptor (human calcitonin receptor + human RAMP3) (human) (UniProt P30988); assay: whole-cell competition vs 125I-rat amylin (Assay Va)
T1 sequence (looked up) 1: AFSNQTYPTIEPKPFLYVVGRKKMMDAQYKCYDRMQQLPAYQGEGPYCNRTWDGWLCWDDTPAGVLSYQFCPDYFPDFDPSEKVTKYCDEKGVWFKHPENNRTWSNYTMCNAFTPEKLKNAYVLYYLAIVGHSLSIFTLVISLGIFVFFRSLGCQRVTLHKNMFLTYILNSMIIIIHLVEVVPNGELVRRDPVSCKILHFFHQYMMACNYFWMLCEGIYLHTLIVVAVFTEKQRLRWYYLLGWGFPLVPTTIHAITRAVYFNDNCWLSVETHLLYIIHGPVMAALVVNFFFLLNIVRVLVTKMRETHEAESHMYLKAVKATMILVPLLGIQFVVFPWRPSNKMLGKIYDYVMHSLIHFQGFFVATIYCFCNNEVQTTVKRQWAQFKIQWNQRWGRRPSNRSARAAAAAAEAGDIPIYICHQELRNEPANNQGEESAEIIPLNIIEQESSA
T1 sequence (looked up) 2: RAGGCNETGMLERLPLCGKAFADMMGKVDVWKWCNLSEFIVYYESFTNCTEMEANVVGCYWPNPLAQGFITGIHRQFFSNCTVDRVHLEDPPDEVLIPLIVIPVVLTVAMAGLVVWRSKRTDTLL

Binder	IC50 [nM]
{C18 diacid-γGlu}-ASELTTAVLGRLSAELHELATLPRTETGSGTP-NH2 [[N-terminal(C18 diacid-gGlu), des1, 6T, 9V, 30S, 31G, 32T]mimylin]	0.652
{C20 diacid-γGlu}-ASELSTAALGHLSAELHELATLPHTETGTGTP-NH2 (SMILES CC(C)C[C@H](NC(=O)[C@H](C)NC(=O)[C@H](C)NC(=O)[C@@H](NC(=O)[C@H](CO)NC(=O)[C@H](CC(C)C)NC(=O)[C@H](CCC(=O)O)NC(=O)[C@H](CO)NC(=O)[C@H](C)NC(=O)CC[C@H](NC(=O)CCCCCCCCCCCCCCCCCCC(=O)O)C(=O)O)[C@@H](C)O)C(=O)NCC(=O)N[C@@H](Cc1c[nH]cn1)C(=O)N[C@@H](CC(C)C)C(=O)N[C@@H](CO)C(=O)N[C@@H](C)C(=O)N[C@@H](CCC(=O)O)C(=O)N[C@@H](CC(C)C)C(=O)N[C@@H](Cc1c[nH]cn1)C(=O)N[C@@H](CCC(=O)O)C(=O)N[C@@H](CC(C)C)C(=O)N[C@@H](C)C(=O)N[C@H](C(=O)N[C@@H](CC(C)C)C(=O)N1CCC[C@H]1C(=O)N[C@@H](Cc1c[nH]cn1)C(=O)N[C@H](C(=O)N[C@@H](CCC(=O)O)C(=O)N[C@H](C(=O)NCC(=O)N[C@H](C(=O)NCC(=O)N[C@H](C(=O)N1CCC[C@H]1C(N)=O)[C@@H](C)O)[C@@H](C)O)[C@@H](C)O)[C@@H](C)O)[C@@H](C)O) [[N-terminal(C20 diacid-gGlu), des1, 12H, 25H, 30T, 31G, 32T]mimylin]	1.51
ASGLSTAALGRLSQELHELQTYPRTETGSK([γGlu-C20 diacid])TY-NH2 (N-terminus assumed; SMILES CC(C)C[C@H](NC(=O)CNC(=O)[C@H](CO)NC(=O)[C@H](C)N)C(=O)N[C@@H](CO)C(=O)N[C@H](C(=O)N[C@@H](C)C(=O)N[C@@H](C)C(=O)N[C@@H](CC(C)C)C(=O)NCC(=O)N[C@@H](CCCNC(=N)N)C(=O)N[C@@H](CC(C)C)C(=O)N[C@@H](CO)C(=O)N[C@@H](CCC(N)=O)C(=O)N[C@@H](CCC(=O)O)C(=O)N[C@@H](CC(C)C)C(=O)N[C@@H](Cc1c[nH]cn1)C(=O)N[C@@H](CCC(=O)O)C(=O)N[C@@H](CC(C)C)C(=O)N[C@@H](CCC(N)=O)C(=O)N[C@H](C(=O)N[C@@H](Cc1ccc(O)cc1)C(=O)N1CCC[C@H]1C(=O)N[C@@H](CCCNC(=N)N)C(=O)N[C@H](C(=O)N[C@@H](CCC(=O)O)C(=O)N[C@H](C(=O)NCC(=O)N[C@@H](CO)C(=O)N[C@@H](CCCCNC(=O)CC[C@H](NC(=O)CCCCCCCCCCCCCCCCCCC(=O)O)C(=O)O)C(=O)N[C@H](C(=O)N[C@@H](Cc1ccc(O)cc1)C(N)=O)[C@@H](C)O)[C@@H](C)O)[C@@H](C)O)[C@@H](C)O)[C@@H](C)O) [[des1, 4G, 15Q, 21Q, 23Y, 30S, 31K(C20 diacid-gGlu), 32T, 33Y]mimylin]	5.45
{C20 diacid-γGlu}-ASELSTAALGRLSAELHELSTYPRTETGSGSY-NH2 (SMILES CC(C)C[C@H](NC(=O)[C@H](C)NC(=O)[C@H](C)NC(=O)[C@@H](NC(=O)[C@H](CO)NC(=O)[C@H](CC(C)C)NC(=O)[C@H](CCC(=O)O)NC(=O)[C@H](CO)NC(=O)[C@H](C)NC(=O)CC[C@H](NC(=O)CCCCCCCCCCCCCCCCCCC(=O)O)C(=O)O)[C@@H](C)O)C(=O)NCC(=O)N[C@@H](CCCNC(=N)N)C(=O)N[C@@H](CC(C)C)C(=O)N[C@@H](CO)C(=O)N[C@@H](C)C(=O)N[C@@H](CCC(=O)O)C(=O)N[C@@H](CC(C)C)C(=O)N[C@@H](Cc1c[nH]cn1)C(=O)N[C@@H](CCC(=O)O)C(=O)N[C@@H](CC(C)C)C(=O)N[C@@H](CO)C(=O)N[C@H](C(=O)N[C@@H](Cc1ccc(O)cc1)C(=O)N1CCC[C@H]1C(=O)N[C@@H](CCCNC(=N)N)C(=O)N[C@H](C(=O)N[C@@H](CCC(=O)O)C(=O)N[C@H](C(=O)NCC(=O)N[C@@H](CO)C(=O)NCC(=O)N[C@@H](CO)C(=O)N[C@@H](Cc1ccc(O)cc1)C(N)=O)[C@@H](C)O)[C@@H](C)O)[C@@H](C)O) [[N-terminal(C20 diacid-gGlu), des1, 21S, 23Y, 30S, 31G, 33Y]mimylin]	0.186
{C18 diacid-γGlu}-ASELTTAVLGRLSAELHELATLPRTETGTGTP-NH2 [[N-terminal(C18 diacid-gGlu), des1, 6T, 9V, 30T, 31G, 32T]mimylin]	2.15
{C20 diacid}-ASGLSTAALGRLSQELHELQTYPRTETGSGTY-NH2 (SMILES CC(C)C[C@H](NC(=O)CNC(=O)[C@H](CO)NC(=O)[C@H](C)NC(=O)CCCCCCCCCCCCCCCCCCC(=O)O)C(=O)N[C@@H](CO)C(=O)N[C@H](C(=O)N[C@@H](C)C(=O)N[C@@H](C)C(=O)N[C@@H](CC(C)C)C(=O)NCC(=O)N[C@@H](CCCNC(=N)N)C(=O)N[C@@H](CC(C)C)C(=O)N[C@@H](CO)C(=O)N[C@@H](CCC(N)=O)C(=O)N[C@@H](CCC(=O)O)C(=O)N[C@@H](CC(C)C)C(=O)N[C@@H](Cc1c[nH]cn1)C(=O)N[C@@H](CCC(=O)O)C(=O)N[C@@H](CC(C)C)C(=O)N[C@@H](CCC(N)=O)C(=O)N[C@H](C(=O)N[C@@H](Cc1ccc(O)cc1)C(=O)N1CCC[C@H]1C(=O)N[C@@H](CCCNC(=N)N)C(=O)N[C@H](C(=O)N[C@@H](CCC(=O)O)C(=O)N[C@H](C(=O)NCC(=O)N[C@@H](CO)C(=O)NCC(=O)N[C@H](C(=O)N[C@@H](Cc1ccc(O)cc1)C(N)=O)[C@@H](C)O)[C@@H](C)O)[C@@H](C)O)[C@@H](C)O)[C@@H](C)O) [[N-terminal(C20 diacid), des1, 4G, 15Q, 21Q, 23Y, 30S, 31G, 32T, 33Y]mimylin]	0.222
{C20 diacid-γGlu}-ASELSTAALGKLSAELHELATYPKTETGSGSY-NH2 (SMILES CC(C)C[C@H](NC(=O)[C@H](C)NC(=O)[C@H](C)NC(=O)[C@@H](NC(=O)[C@H](CO)NC(=O)[C@H](CC(C)C)NC(=O)[C@H](CCC(=O)O)NC(=O)[C@H](CO)NC(=O)[C@H](C)NC(=O)CC[C@H](NC(=O)CCCCCCCCCCCCCCCCCCC(=O)O)C(=O)O)[C@@H](C)O)C(=O)NCC(=O)N[C@@H](CCCCN)C(=O)N[C@@H](CC(C)C)C(=O)N[C@@H](CO)C(=O)N[C@@H](C)C(=O)N[C@@H](CCC(=O)O)C(=O)N[C@@H](CC(C)C)C(=O)N[C@@H](Cc1c[nH]cn1)C(=O)N[C@@H](CCC(=O)O)C(=O)N[C@@H](CC(C)C)C(=O)N[C@@H](C)C(=O)N[C@H](C(=O)N[C@@H](Cc1ccc(O)cc1)C(=O)N1CCC[C@H]1C(=O)N[C@@H](CCCCN)C(=O)N[C@H](C(=O)N[C@@H](CCC(=O)O)C(=O)N[C@H](C(=O)NCC(=O)N[C@@H](CO)C(=O)NCC(=O)N[C@@H](CO)C(=O)N[C@@H](Cc1ccc(O)cc1)C(N)=O)[C@@H](C)O)[C@@H](C)O)[C@@H](C)O) [[N-terminal(C20 diacid-gGlu), des1, 12K, 23Y, 25K, 30S, 31G, 33Y]mimylin]	0.588
{C18 diacid-γGlu}-ASELTTAVLGRLEAELHELTTLPRTETGTGTP-NH2 [[N-terminal(C18 diacid-gGlu), des1, 6T, 9V, 14E, 21T, 30T, 31G, 32T]mimylin]	19.7
{C18 diacid-γGlu}-ASEVSTAVVGRLSAELHEVATLPRTETGSGSP-NH2 (SMILES CC(C)C[C@H](NC(=O)[C@H](CCCNC(=N)N)NC(=O)CNC(=O)[C@@H](NC(=O)[C@@H](NC(=O)[C@H](C)NC(=O)[C@@H](NC(=O)[C@H](CO)NC(=O)[C@@H](NC(=O)[C@H](CCC(=O)O)NC(=O)[C@H](CO)NC(=O)[C@H](C)NC(=O)CC[C@H](NC(=O)CCCCCCCCCCCCCCCCC(=O)O)C(=O)O)C(C)C)[C@@H](C)O)C(C)C)C(C)C)C(=O)N[C@@H](CO)C(=O)N[C@@H](C)C(=O)N[C@@H](CCC(=O)O)C(=O)N[C@@H](CC(C)C)C(=O)N[C@@H](Cc1c[nH]cn1)C(=O)N[C@@H](CCC(=O)O)C(=O)N[C@H](C(=O)N[C@@H](C)C(=O)N[C@H](C(=O)N[C@@H](CC(C)C)C(=O)N1CCC[C@H]1C(=O)N[C@@H](CCCNC(=N)N)C(=O)N[C@H](C(=O)N[C@@H](CCC(=O)O)C(=O)N[C@H](C(=O)NCC(=O)N[C@@H](CO)C(=O)NCC(=O)N[C@@H](CO)C(=O)N1CCC[C@H]1C(N)=O)[C@@H](C)O)[C@@H](C)O)[C@@H](C)O)C(C)C) [[N-terminal(C18 diacid-gGlu), des1, 5V, 9V, 10V, 20V, 30S, 31G]mimylin]	1.65
{C18 diacid-γGlu}-ASEVSTAVVGRLSAELHELATLPRTETGSGSP-NH2 (SMILES CC(C)C[C@H](NC(=O)[C@H](CCC(=O)O)NC(=O)[C@H](Cc1c[nH]cn1)NC(=O)[C@H](CC(C)C)NC(=O)[C@H](CCC(=O)O)NC(=O)[C@H](C)NC(=O)[C@H](CO)NC(=O)[C@H](CC(C)C)NC(=O)[C@H](CCCNC(=N)N)NC(=O)CNC(=O)[C@@H](NC(=O)[C@@H](NC(=O)[C@H](C)NC(=O)[C@@H](NC(=O)[C@H](CO)NC(=O)[C@@H](NC(=O)[C@H](CCC(=O)O)NC(=O)[C@H](CO)NC(=O)[C@H](C)NC(=O)CC[C@H](NC(=O)CCCCCCCCCCCCCCCCC(=O)O)C(=O)O)C(C)C)[C@@H](C)O)C(C)C)C(C)C)C(=O)N[C@@H](C)C(=O)N[C@H](C(=O)N[C@@H](CC(C)C)C(=O)N1CCC[C@H]1C(=O)N[C@@H](CCCNC(=N)N)C(=O)N[C@H](C(=O)N[C@@H](CCC(=O)O)C(=O)N[C@H](C(=O)NCC(=O)N[C@@H](CO)C(=O)NCC(=O)N[C@@H](CO)C(=O)N1CCC[C@H]1C(N)=O)[C@@H](C)O)[C@@H](C)O)[C@@H](C)O) [[N-terminal(C18 diacid-gGlu), des1, 5V, 9V, 10V, 30S, 31G]mimylin]	1.17
